Assay results reported in article doi:10.1101/2022.11.05.515281v1.

What was measured:
Test in all cases: purified protein, by the assay type
[1] = substrate: CC1=CC(=O)CC(C)(C)C1=O
[2] = substrate: CC1=CC(=O)[C@H]2C[C@@H]1C2(C)C
[3] = substrate: C=C(C)[C@H]1CC=C(C)C(=O)C1
[4] = substrate: CC1=CCCC1=O
[5] = substrate: COC(=O)C1=CCCCC1
[6] = substrate: CC1=CC(=O)CC1
[7] = substrate: O=[N+]([O-])C1=CCCCC1

B1: MSMEG_2027 (Mycolicibacterium smegmatis MC2 155) (protein)
chain: MTDAELSPTDWVREQTERILEQGTTDGVHVLDRPIVLFTTTGAKSGKKRYVPLMRVEENGKYAMVASKGGDPKHPSWYFNVKANPTVSVQDGDKVLPDRTARELEGEEREHWWKLAVEAYPPYAEYQTKTDRLIPVFIVE
Km [1]: 4550 ± 360.6 µM
kcat [1]: 0.459 ± 0.013 s⁻¹
kcat/Km [1]: 101 ± 5.7 M⁻¹ s⁻¹
Km [2]: 2583 ± 667.2 µM
kcat [2]: 0.048 ± 0.0049 s⁻¹
kcat/Km [2]: 18.6 ± 3.22 M⁻¹ s⁻¹
Km [3]: 3099 ± 916.4 µM
kcat [3]: 0.12 ± 0.0114 s⁻¹
kcat/Km [3]: 38.7 ± 8.62 M⁻¹ s⁻¹
Km [4]: 1514 ± 111 µM
kcat [4]: 0.783 ± 0.0157 s⁻¹
kcat/Km [4]: 517 ± 30.8 M⁻¹ s⁻¹

B2: MSMEG_2850 (Mycolicibacterium smegmatis MC2 155) (protein)
chain: MTEAIDWDQMNNQVIKEFRETGGKAGGLFEGSPLVLVHHTGAKSGKQRIAPLVPLLDGDRIYIFGSKGGADSHPDWYHNLVANPDTVVELGTETFPVKARVLTGAERDEIYAKQVAVAPQFGDYQRKTTRVIPVVELQRV
Km [5]: 4355 ± 312.6 µM
kcat [5]: 0.279 ± 0.0071 s⁻¹
kcat/Km [5]: 64.1 ± 3.29 M⁻¹ s⁻¹
Km [6]: 862 ± 508 µM
kcat [6]: 0.018 ± 0.0026 s⁻¹
kcat/Km [6]: 21 ± 10.5 M⁻¹ s⁻¹
Km [7]: 1739 ± 136.9 µM
kcat [7]: 1.07 ± 0.0295 s⁻¹
kcat/Km [7]: 617 ± 35 M⁻¹ s⁻¹
